B1: CD138 260-268 (GLVGLIFAV) (peptide)
peptide: GLVGLIFAV
notes: Native peptide of CD138, synthetic; also called CD138 #2p; CD138 #2 peptide
B2: XBP1 184-192 (NISPWILAV) (peptide)
peptide: NISPWILAV
notes: Native peptide of non-spliced XBP1, synthetic; also called XBP1 #2 peptide; XBP1 #2p
B3: XBP1 110-118 (KLLLENQLL) (peptide)
peptide: KLLLENQLL
notes: Native peptide of non-spliced XBP1, synthetic; also called XBP1 #5 peptide
B4: SP XBP1 196-204 (GILDNLDPV) (peptide)
peptide: GILDNLDPV
notes: also called SP XBP1 #1 peptide; SP XBP1 #1p
B5: SP XBP1 367-375 (ELFPQLISV) (peptide)
peptide: ELFPQLISV
notes: Native peptide of spliced XBP1, synthetic; also called SP XBP1 #3 peptide; SP XBP1 #3p
B6: heteroclitic spliced XBP1 367-375 (YLFPQLISV) (peptide)
peptide: YLFPQLISV
notes: Heteroclitic variant of the spliced XBP1 367-375 peptide, synthetic; also called SP XBP1 #3M; XBP1 SP 3M
B7: XBP1 189-197 (ILAVLTLQI) (peptide)
peptide: ILAVLTLQI
notes: Native peptide of non-spliced XBP1, synthetic; also called XBP1 #3 peptide

Assays:
[1] = target: T1, HLA-A2 molecules on the surface of human T2 cells (human); assay: T2 peptide-binding assay; HLA-A2 up-regulation on T2 cells, 50 ug/ml peptide plus b2m, flow cytometry with FITC anti-HLA-A2 mAb
T1 construct: MHC class I molecule that the peptides load onto; also called HLA-A2.1; HLA-A*0201

[2] = target: T1, HLA-A2 molecules on the surface of …; assay: T2 peptide-binding assay; HLA-A2 up-regulation on T2 cells, flow cytometry
[3] = target: T1, HLA-A2 molecules on the surface of …; assay: T2 peptide-binding assay; HLA-A2 up-regulation on T2 cells, 50 ug/mL peptide plus b2m, flow cytometry with PE anti-HLA-A2 mAb
[4] = target: T1, HLA-A2 molecules on the surface of …; assay: peptide stability assay on T2 cells after Brefeldin A, flow cytometry with FITC anti-HLA-A2 mAb

Binder | MFI (HLA-A2 mean fluorescence intensity) [1] [MFI] | binding result [3] | other results
B1 | 690 | – | –
LLREKTHGL (also called XBP1 #1 peptide) [XBP1 117-125 (LLREKTHGL)] | – | – | binding result [2]: binds
B2 | 720 | – | –
B3 | – | – | binding result [2]: binds
B4 | 762 | – | –
LLLSLFVLGL [CS1-P1: CS1 236-245 (LLLSLFVLGL)] | – | binds | –
LLVPLLLSL (Native peptide of CS1, synthetic) [CS1-P3: CS1 232-240 (LLVPLLLSL)] | – | binds | –
B5 | 785 | – | –
B6 | – | – | binding result [4]: binds
B7 | – | – | binding result [2]: binds
SLFVLGLFL (Native peptide of CS1, synthetic) [CS1-P2: CS1 239-247 (SLFVLGLFL)] | – | binds | –
TLIYILWQL (Native peptide of CS1, synthetic) [CS1-P4: CS1 9-17 (TLIYILWQL)] | – | binds | –
